# Data reported in patent publication US12679878B2, “CRF2 receptor agonists and their use in therapy” (SANOFI, priority 2020, dated 2026).
# Starred links: 1 amine or outer side, 2 acyl side, 3 side chain; linkers in the order of their positions; H or OH if unused. Non-standard residues stand in square brackets, D forms with d. Groups on a side chain read outwards from the residue. No end group written: not given here. *: point of attachment. C18 diacid = O=C(O)CCCCCCCCCCCCCCCCC(=O)*; γGlu = O=C(O)[C@H](CCC(=O)[*:2])N[*:1]; AEEA = NCCOCCOCC(=O)O; Aib = CC(C)(N)C(=O)O
# T1: anti-target CRF1R receptor (UniProt P34998 24-415, limits assumed)
# T1 sequence (looked up): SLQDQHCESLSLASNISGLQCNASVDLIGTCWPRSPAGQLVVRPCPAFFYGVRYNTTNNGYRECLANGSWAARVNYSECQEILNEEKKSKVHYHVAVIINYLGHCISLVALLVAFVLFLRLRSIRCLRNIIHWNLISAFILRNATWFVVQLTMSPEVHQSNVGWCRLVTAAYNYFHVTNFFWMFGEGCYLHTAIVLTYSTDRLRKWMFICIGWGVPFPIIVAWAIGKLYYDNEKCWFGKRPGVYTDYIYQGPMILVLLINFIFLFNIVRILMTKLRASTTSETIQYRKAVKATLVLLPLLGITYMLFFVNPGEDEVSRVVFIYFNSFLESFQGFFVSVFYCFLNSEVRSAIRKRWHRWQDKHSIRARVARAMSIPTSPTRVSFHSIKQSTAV
# B1: peptide of SEQ ID NO: 164 (peptide)
# peptide: Ac-IVLSLD[dV]PIGLK([AEEA-AEEA-γGlu-C18 diacid])QILLEQERQK[Aib]QREQAEKNKQILEQV-NH2
# SMILES: CC[C@H](C)[C@H](NC(C)=O)C(=O)N[C@H](C(=O)N[C@@H](CC(C)C)C(=O)N[C@@H](CO)C(=O)N[C@@H](CC(C)C)C(=O)N[C@@H](CC(=O)O)C(=O)N[C@@H](C(=O)N1CCC[C@H]1C(=O)N[C@H](C(=O)NCC(=O)N[C@@H](CC(C)C)C(=O)N[C@@H](CCCCNC(=O)COCCOCCNC(=O)COCCOCCNC(=O)CC[C@H](NC(=O)CCCCCCCCCCCCCCCCC(=O)O)C(=O)O)C(=O)N[C@@H](CCC(N)=O)C(=O)N[C@H](C(=O)N[C@@H](CC(C)C)C(=O)N[C@@H](CC(C)C)C(=O)N[C@@H](CCC(=O)O)C(=O)N[C@@H](CCC(N)=O)C(=O)N[C@@H](CCC(=O)O)C(=O)N[C@@H](CCCNC(=N)N)C(=O)N[C@@H](CCC(N)=O)C(=O)N[C@@H](CCCCN)C(=O)NC(C)(C)C(=O)N[C@@H](CCC(N)=O)C(=O)N[C@@H](CCCNC(=N)N)C(=O)N[C@@H](CCC(=O)O)C(=O)N[C@@H](CCC(N)=O)C(=O)N[C@@H](C)C(=O)N[C@@H](CCC(=O)O)C(=O)N[C@@H](CCCCN)C(=O)N[C@@H](CC(N)=O)C(=O)N[C@@H](CCCCN)C(=O)N[C@@H](CCC(N)=O)C(=O)N[C@H](C(=O)N[C@@H](CC(C)C)C(=O)N[C@@H](CCC(=O)O)C(=O)N[C@@H](CCC(N)=O)C(=O)N[C@H](C(N)=O)C(C)C)[C@@H](C)CC)[C@@H](C)CC)[C@@H](C)CC)C(C)C)C(C)C
# B2: peptide of SEQ ID NO: 132 (peptide)
# peptide: IVLSLD[dV]PIKLK([AEEA-AEEA-γGlu-C18 diacid])QILLEQERQK[Aib]QREQAEKNKQILERV-NH2
# modifications: N-terminus assumed
# SMILES: CC[C@H](C)[C@H](N)C(=O)N[C@H](C(=O)N[C@@H](CC(C)C)C(=O)N[C@@H](CO)C(=O)N[C@@H](CC(C)C)C(=O)N[C@@H](CC(=O)O)C(=O)N[C@@H](C(=O)N1CCC[C@H]1C(=O)N[C@H](C(=O)N[C@@H](CCCCN)C(=O)N[C@@H](CC(C)C)C(=O)N[C@@H](CCCCNC(=O)COCCOCCNC(=O)COCCOCCNC(=O)CC[C@H](NC(=O)CCCCCCCCCCCCCCCCC(=O)O)C(=O)O)C(=O)N[C@@H](CCC(N)=O)C(=O)N[C@H](C(=O)N[C@@H](CC(C)C)C(=O)N[C@@H](CC(C)C)C(=O)N[C@@H](CCC(=O)O)C(=O)N[C@@H](CCC(N)=O)C(=O)N[C@@H](CCC(=O)O)C(=O)N[C@@H](CCCNC(=N)N)C(=O)N[C@@H](CCC(N)=O)C(=O)N[C@@H](CCCCN)C(=O)NC(C)(C)C(=O)N[C@@H](CCC(N)=O)C(=O)N[C@@H](CCCNC(=N)N)C(=O)N[C@@H](CCC(=O)O)C(=O)N[C@@H](CCC(N)=O)C(=O)N[C@@H](C)C(=O)N[C@@H](CCC(=O)O)C(=O)N[C@@H](CCCCN)C(=O)N[C@@H](CC(N)=O)C(=O)N[C@@H](CCCCN)C(=O)N[C@@H](CCC(N)=O)C(=O)N[C@H](C(=O)N[C@@H](CC(C)C)C(=O)N[C@@H](CCC(=O)O)C(=O)N[C@@H](CCCNC(=N)N)C(=O)N[C@H](C(N)=O)C(C)C)[C@@H](C)CC)[C@@H](C)CC)[C@@H](C)CC)C(C)C)C(C)C
# B3: peptide of SEQ ID NO: 136 (peptide)
# peptide: IVLSLD[dV]PIKLK([AEEA-AEEA-γGlu-C18 diacid])QILLKQERQKK[Aib]RQKAEKNKQILAQV-NH2
# modifications: N-terminus assumed
# SMILES: CC[C@H](C)[C@H](N)C(=O)N[C@H](C(=O)N[C@@H](CC(C)C)C(=O)N[C@@H](CO)C(=O)N[C@@H](CC(C)C)C(=O)N[C@@H](CC(=O)O)C(=O)N[C@@H](C(=O)N1CCC[C@H]1C(=O)N[C@H](C(=O)N[C@@H](CCCCN)C(=O)N[C@@H](CC(C)C)C(=O)N[C@@H](CCCCNC(=O)COCCOCCNC(=O)COCCOCCNC(=O)CC[C@H](NC(=O)CCCCCCCCCCCCCCCCC(=O)O)C(=O)O)C(=O)N[C@@H](CCC(N)=O)C(=O)N[C@H](C(=O)N[C@@H](CC(C)C)C(=O)N[C@@H](CC(C)C)C(=O)N[C@@H](CCCCN)C(=O)N[C@@H](CCC(N)=O)C(=O)N[C@@H](CCC(=O)O)C(=O)N[C@@H](CCCNC(=N)N)C(=O)N[C@@H](CCC(N)=O)C(=O)N[C@@H](CCCCN)C(=O)N[C@@H](CCCCN)C(=O)NC(C)(C)C(=O)N[C@@H](CCCNC(=N)N)C(=O)N[C@@H](CCC(N)=O)C(=O)N[C@@H](CCCCN)C(=O)N[C@@H](C)C(=O)N[C@@H](CCC(=O)O)C(=O)N[C@@H](CCCCN)C(=O)N[C@@H](CC(N)=O)C(=O)N[C@@H](CCCCN)C(=O)N[C@@H](CCC(N)=O)C(=O)N[C@H](C(=O)N[C@@H](CC(C)C)C(=O)N[C@@H](C)C(=O)N[C@@H](CCC(N)=O)C(=O)N[C@H](C(N)=O)C(C)C)[C@@H](C)CC)[C@@H](C)CC)[C@@H](C)CC)C(C)C)C(C)C
# B4: peptide of SEQ ID NO: 146 (peptide)
# peptide: FTLSLDVPIKLK([AEEA-AEEA-γGlu-C18 diacid])QILLKQERQKKQRQKAKKNKQILERV-NH2
# modifications: N-terminus assumed
# SMILES: CC[C@H](C)[C@H](NC(=O)[C@H](CCC(N)=O)NC(=O)[C@H](CCCCNC(=O)COCCOCCNC(=O)COCCOCCNC(=O)CC[C@H](NC(=O)CCCCCCCCCCCCCCCCC(=O)O)C(=O)O)NC(=O)[C@H](CC(C)C)NC(=O)[C@H](CCCCN)NC(=O)[C@@H](NC(=O)[C@@H]1CCCN1C(=O)[C@@H](NC(=O)[C@H](CC(=O)O)NC(=O)[C@H](CC(C)C)NC(=O)[C@H](CO)NC(=O)[C@H](CC(C)C)NC(=O)[C@@H](NC(=O)[C@@H](N)Cc1ccccc1)[C@@H](C)O)C(C)C)[C@@H](C)CC)C(=O)N[C@@H](CC(C)C)C(=O)N[C@@H](CC(C)C)C(=O)N[C@@H](CCCCN)C(=O)N[C@@H](CCC(N)=O)C(=O)N[C@@H](CCC(=O)O)C(=O)N[C@@H](CCCNC(=N)N)C(=O)N[C@@H](CCC(N)=O)C(=O)N[C@@H](CCCCN)C(=O)N[C@@H](CCCCN)C(=O)N[C@@H](CCC(N)=O)C(=O)N[C@@H](CCCNC(=N)N)C(=O)N[C@@H](CCC(N)=O)C(=O)N[C@@H](CCCCN)C(=O)N[C@@H](C)C(=O)N[C@@H](CCCCN)C(=O)N[C@@H](CCCCN)C(=O)N[C@@H](CC(N)=O)C(=O)N[C@@H](CCCCN)C(=O)N[C@@H](CCC(N)=O)C(=O)N[C@H](C(=O)N[C@@H](CC(C)C)C(=O)N[C@@H](CCC(=O)O)C(=O)N[C@@H](CCCNC(=N)N)C(=O)N[C@H](C(N)=O)C(C)C)[C@@H](C)CC
# B5: peptide of SEQ ID NO: 100 (peptide)
# peptide: IVLSLDVPIKLK([AEEA-AEEA-γGlu-C18 diacid])KILLKQERQKK[Aib]REQAETN[Aib]QILAQV-NH2
# modifications: N-terminus assumed
# SMILES: CC[C@H](C)[C@H](N)C(=O)N[C@H](C(=O)N[C@@H](CC(C)C)C(=O)N[C@@H](CO)C(=O)N[C@@H](CC(C)C)C(=O)N[C@@H](CC(=O)O)C(=O)N[C@H](C(=O)N1CCC[C@H]1C(=O)N[C@H](C(=O)N[C@@H](CCCCN)C(=O)N[C@@H](CC(C)C)C(=O)N[C@@H](CCCCNC(=O)COCCOCCNC(=O)COCCOCCNC(=O)CC[C@H](NC(=O)CCCCCCCCCCCCCCCCC(=O)O)C(=O)O)C(=O)N[C@@H](CCCCN)C(=O)N[C@H](C(=O)N[C@@H](CC(C)C)C(=O)N[C@@H](CC(C)C)C(=O)N[C@@H](CCCCN)C(=O)N[C@@H](CCC(N)=O)C(=O)N[C@@H](CCC(=O)O)C(=O)N[C@@H](CCCNC(=N)N)C(=O)N[C@@H](CCC(N)=O)C(=O)N[C@@H](CCCCN)C(=O)N[C@@H](CCCCN)C(=O)NC(C)(C)C(=O)N[C@@H](CCCNC(=N)N)C(=O)N[C@@H](CCC(=O)O)C(=O)N[C@@H](CCC(N)=O)C(=O)N[C@@H](C)C(=O)N[C@@H](CCC(=O)O)C(=O)N[C@H](C(=O)N[C@@H](CC(N)=O)C(=O)NC(C)(C)C(=O)N[C@@H](CCC(N)=O)C(=O)N[C@H](C(=O)N[C@@H](CC(C)C)C(=O)N[C@@H](C)C(=O)N[C@@H](CCC(N)=O)C(=O)N[C@H](C(N)=O)C(C)C)[C@@H](C)CC)[C@@H](C)O)[C@@H](C)CC)[C@@H](C)CC)C(C)C)C(C)C
# Biological target: T1, anti-target CRF1R receptor
# Assay: cell-based or functional assay
"EC50[nM] 0% HSA (cAMP, CRF1R-overexpression CHO cells) [nM]","Emax (%) (cAMP, CRF1R-overexpression CHO cells)",Binder
> 1000,25.8,B1
> 1000,36.9,B2
> 1000,21.8,B3
> 1000,1.03,B4
> 1000,5.06,B5

# Biological target: rat CRF2R α receptor (rat, UniProt P47866 20-411)
# Sequence (P47866 20-411): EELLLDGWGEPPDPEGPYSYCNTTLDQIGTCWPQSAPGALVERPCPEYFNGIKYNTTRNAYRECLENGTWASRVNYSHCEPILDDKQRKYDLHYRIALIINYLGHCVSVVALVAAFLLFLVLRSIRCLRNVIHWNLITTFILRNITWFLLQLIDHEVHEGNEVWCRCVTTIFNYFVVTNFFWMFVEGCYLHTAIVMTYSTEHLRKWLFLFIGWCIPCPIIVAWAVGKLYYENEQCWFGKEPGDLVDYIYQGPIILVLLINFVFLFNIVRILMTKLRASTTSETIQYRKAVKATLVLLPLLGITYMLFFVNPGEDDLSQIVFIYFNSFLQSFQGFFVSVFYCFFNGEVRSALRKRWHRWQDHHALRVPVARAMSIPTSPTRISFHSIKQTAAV
# Assay: cell-based or functional assay
row,"EC50 [nM], 0% HSA (cAMP, A7R5 cells) [nM]",Binder
1,12.6,B1
2,0.79,B2
3,0.38,B3
4,0.22,B4
5,7.52,B5
